# Patent US20150266922
# T1: SLRFLYEG (SEQ ID NO: 38)
# T1 chain: SLRFLYEG
# T2: SUMO1 EIL peptide SLRFLFEGQRIADNH (SEQ ID NO: 1)
# T2 chain: SLRFLFEGQRIADNH
# B1: Dipeptidyl peptidase IV (DPPIV) (protein)
# chain: SRKTYTLTDYLKNTYRLKLYSLRWISDHEYLYKQENNILVFNAEYGNSSVFLENSTFDEFGHSINDYSISPDGQFILLEYNYVKQWRHSYTASYDIYDLNKRQLITEERIPNNTQWVTWSPVGHKLAYVWNNDIYVKIEPNLPSYRITWTGKEDIIYNGITDWVYEEEVFSAYSALWWSPNGTFLAYAQFNDTEVPLIEYSFYSDESLQYPKTVRVPYPKAGAVNPTVKFFVVNTDSLSSVTNATSIQITAPASMLIGDHYLCDVTWATQERISLQWLRRIQNYSVMDICDYDESSGRWNCLVARQHIEMSTTGWVGRFRPSEPHFTLDGNSFYKIISNEEGYRHICYFQIDKKDCTFITKGTWEVIGIEALTSDYLYYISNEYKGMPGGRNLYKIQLSDYTKVTCLSCELNPERCQYYSVSFSKEAKYYQLRCSGPGLPLYTLHSSVNDKGLRVLEDNSALDKMLQNVQMPSKKLDFIILNETKFWYQMILPPHFDKSKKYPLLLDVYAGPCSQKADTVFRLNWATYLASTENIIVASFDGRGSGYQGDKIMHAINRRLGTFEVEDQIEAARQFSKMGFVDNKRIAIWGWSYGGYVTSMVLGSGSGVFKCGIAVAPVSRWEYYDSVYTERYMGLPTPEDNLDHYRNSTVMSRAENFKQVEYLLIHGTADDNVHFQQSAQISKALVDVGVDFQAMWYTDEDHGIASSTAHQHIYTHMSHFIKQCFSLP
# B2: Dipeptidyl peptidase 9 (DPP9), recombinant wild-type (protein)
# chain: MRKVKKLRLDKENTGSWRSFSLNSEGAERMATTGTPTADRGDAAATDDPAARFQVQKHSWDGLRSIIHGSRKYSGLIVNKAPHDFQFVQKTDESGPHSHRLYYLGMPYGSRENSLLYSEIPKKVRKEALLLLSWKQMLDHFQATPHHGVYSREEELLRERKRLGVFGITSYDFHSESGLFLFQASNSLFHCRDGGKNGFMVSPMKPLEIKTQCSGPRMDPKICPADPAFFSFINNSDLWVANIETGEERRLTFCHQGLSNVLDDPKSAGVATFVIQEEFDRFTGYWWCPTASWEGSEGLKTLRILYEEVDESEVEVIHVPSPALEERKTDSYRYPRTGSKNPKIALKLAEFQTDSQGKIVSTQEKELVQPFSSLFPKVEYIARAGWTRDGKYAWAMFLDRPQQWLQLVLLPPALFIPSTENEEQRLASARAVPRNVQPYVVYEEVTNVWINVHDIFYPFPQSEGEDELCFLRANECKTGFCHLYKVTAVLKSQGYDWSEPFSPGEDEFKCPIKEEIALTSGEWEVLARHGSKIWVNEETKLVYFQGTKDTPLEHHLYVVSYEAAGEIVRLTTPGFSHSCSMSQNFDMFVSHYSSVSTPPCVHVYKLSGPDDDPLHKQPRFWASMMEAASCPPDYVPPEIFHFHTRSDVRLYGMIYKPHALQPGKKHPTVLFVYGGPQVQLVNNSFKGIKYLRLNTLASLGYAVVVIDGRGSCQRGLRFEGALKNQMGQVEIEDQVEGLQFVAEKYGFIDLSRVAIHGWSYGGFLSLMGLIHKPQVFKVAIAGAPVTVWMAYDTGYTERYMDVPENNQHGYEAGSVALHVEKLPNEPNRLLILHGFLDENVHFFHTNFLVSQLIRAGKPYQLQIYPNERHSIRCPESGEHYEVTLLHFLQEYL
# B3: Dipeptidyl peptidase 8 (DPP8), recombinant (protein)
# chain: MWKRSEQMKIKSGKCNMAAAMETEQLGVEIFETADCEENIESQDRPKLEPFYVERYSWSQLKKLLADTRKYHGYMMAKAPHDFMFVKRNDPDGPHSDRIYYLAMSGENRENTLFYSEIPKTINRAAVLMLSWKPLLDLFQATLDYGMYSREEELLRERKRIGTVGIASYDYHQGSGTFLFQAGSGIYHVKDGGPQGFTQQPLRPNLVETSCPNIRMDPKLCPADPDWIAFIHSNDIWISNIVTREERRLTYVHNELANMEEDARSAGVATFVLQEEFDRYSGYWWCPKAETTPSGGKILRILYEENDESEVEIIHVTSPMLETRRADSFRYPKTGTANPKVTFKMSEIMIDAEGRIIDVIDKELIQPFEILFEGVEYIARAGWTPEGKYAWSILLDRSQTRLQIVLISPELFIPVEDDVMERQRLIESVPDSVTPLIIYEETTDIWINIHDIFHVFPQSHEEEIEFIFASECKTGFRHLYKITSILKESKYKRSSGGLPAPSDFKCPIKEEIAITSGEWEVLGRHGSNIQVDEVRRLVYFEGTKDSPLEHHLYVVSYVNPGEVTRLTDRGYSHSCCISQHCDFFISKYSNQKNPHCVSLYKLSSPEDDPTCKTKEFWATILDSAGPLPDYTPPEIFSFESTTGFTLYGMLYKPHDLQPGKKYPTVLFIYGGPQVQLVNNRFKGVKYFRLNTLASLGYVVVVIDNRGSCHRGLKFEGAFKYKMGQIEIDDQVEGLQYLASRYDFIDLDRVGIHGWSYGGYLSLMALMQRSDIFRVAIAGAPVTLWIFYDTGYTERYMGHPDQNEQGYYLGSVAMQAEKFPSEPNRLLLLHGFLDENVHFAHTSILLSFLVRAGKPYDLQIYPQERHSIRVPESGEHYELHLLHYLQENLGSRIAALKVI
# What was measured:
# SLRFLYEG (SEQ ID NO: 38) = target: T1, SLRFLYEG (SEQ ID NO: 38)
# [1] = target: T2, SUMO1 EIL peptide SLRFLFEGQRIADNH (SEQ …)
# [2] = target: RanGAP modified with SUMO1, P63165
# Sequence of SUMO2, P61956 (P61956 1-93): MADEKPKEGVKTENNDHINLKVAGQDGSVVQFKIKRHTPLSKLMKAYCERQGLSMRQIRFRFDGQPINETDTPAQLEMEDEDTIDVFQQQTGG
# Sequence of SUMO2D71H, P61956 (P61956 other isoform, or with tags, fused parts or gaps): as the sequence (P61956 1-93) above, with D71H counted along it
# Sequence of SUMO2R61L, P61956 (P61956 1-93 R61L): as the sequence (P61956 1-93) above, with R61L counted along it
protein,measurement,setting,value
B1,hydrolysis of GP-AMC by DPPIV,SLRFLYEG (SEQ ID NO: 38),"It has no inhibitory effect towards DPPIV, in the concentrations measured (up to 50 µM)"
same,hydrolysis of GP-AMC by DPPIV,[1],"DPPIV is not inhibited by the EIL peptide, also in the presence of 13 µM peptide"
B2,hydrolysis of GP-AMC by DPP9,RanGAP,"DPP9 activity is increased when incubated with RanGAP modified by SUMO1, but not by unmodified RanGAP"
same,hydrolysis of GP-AMC by DPP9,[2],"DPP9 activity is increased when incubated with RanGAP modified by SUMO1, but not by unmodified RanGAP"
same,hydrolysis of GP-AMC by recombinant DPP9,[1],"pure recombinant DPP8 and DPP9 are inhibited by the EIL peptide, also in the absence of SUMO1"
same,hydrolysis rate of GP-AMC by DPP9,"SUMO1, P63165",the hydrolysis rate of GP-AMC by DPP9 was increased in the presence of SUMO1 in comparison to control reactions
same,hydrolysis of GP-AMC by DPP9,"SUMO1E67A, P63165",this activation was not observed in the presence of SUMO1 mutated in a single amino acid: SUMO1E67A
same,hydrolysis of GP-AMC by DPP9,"SUMO2, P61956",SUMO1 but not SUMO2 can regulate DPP9 activity
same,hydrolysis of GP-AMC by DPP9,"SUMO2D71H, P61956",DPP9 activity was increased in the presence of SUMO2 mutated in a single amino acid: D71H
same,hydrolysis of GP-AMC by DPP9,"SUMO2R61L, P61956",This activation was not observed in the presence of SUMO2R61L
B3,hydrolysis of GP-AMC by recombinant DPP8,[1],"pure recombinant DPP8 and DPP9 are inhibited by the EIL peptide, also in the absence of SUMO1"
